Test results reported in paper PMC5207708.

What was measured:
MIER2 = MIER2 (UniProt Q8N344); test: co-IP; HEK293 cells transfected with the myc-tagged protein; lysis in 1% Triton X-100, 150 mM NaCl, 20 mM Tris-Cl pH 7.5, 1 mM EDTA; IP with 9E10 anti-myc overnight at 4°C; endogenous HDAC1 and HDAC2 by Western; band densitometry (HDAC:MIER ratio); also with or without 12.5 μM Ins(1,4,5,6)P4 during the IP (no substantial difference)
MIER3 isoform 1 = MIER3 isoform 1 (UniProt Q7Z3K6); test: as above
Chain of UniProt Q7Z3K6 (Q7Z3K6 whole entry, canonical isoform): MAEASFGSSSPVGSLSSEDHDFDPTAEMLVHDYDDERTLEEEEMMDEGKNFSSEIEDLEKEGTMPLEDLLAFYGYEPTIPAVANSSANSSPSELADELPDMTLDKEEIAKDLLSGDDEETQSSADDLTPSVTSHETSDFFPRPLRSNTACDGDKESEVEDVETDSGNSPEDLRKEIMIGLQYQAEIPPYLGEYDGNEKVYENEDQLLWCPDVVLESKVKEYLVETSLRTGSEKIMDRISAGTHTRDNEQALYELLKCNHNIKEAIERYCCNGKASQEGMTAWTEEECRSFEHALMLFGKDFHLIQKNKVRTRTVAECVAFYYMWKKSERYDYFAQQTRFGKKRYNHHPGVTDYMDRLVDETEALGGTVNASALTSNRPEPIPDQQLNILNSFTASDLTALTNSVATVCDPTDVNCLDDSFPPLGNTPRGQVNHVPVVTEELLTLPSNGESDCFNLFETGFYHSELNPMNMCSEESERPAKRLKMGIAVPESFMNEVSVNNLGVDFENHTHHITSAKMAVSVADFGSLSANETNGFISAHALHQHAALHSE

Chain of UniProt Q8N344 (Q8N344 whole entry, canonical isoform): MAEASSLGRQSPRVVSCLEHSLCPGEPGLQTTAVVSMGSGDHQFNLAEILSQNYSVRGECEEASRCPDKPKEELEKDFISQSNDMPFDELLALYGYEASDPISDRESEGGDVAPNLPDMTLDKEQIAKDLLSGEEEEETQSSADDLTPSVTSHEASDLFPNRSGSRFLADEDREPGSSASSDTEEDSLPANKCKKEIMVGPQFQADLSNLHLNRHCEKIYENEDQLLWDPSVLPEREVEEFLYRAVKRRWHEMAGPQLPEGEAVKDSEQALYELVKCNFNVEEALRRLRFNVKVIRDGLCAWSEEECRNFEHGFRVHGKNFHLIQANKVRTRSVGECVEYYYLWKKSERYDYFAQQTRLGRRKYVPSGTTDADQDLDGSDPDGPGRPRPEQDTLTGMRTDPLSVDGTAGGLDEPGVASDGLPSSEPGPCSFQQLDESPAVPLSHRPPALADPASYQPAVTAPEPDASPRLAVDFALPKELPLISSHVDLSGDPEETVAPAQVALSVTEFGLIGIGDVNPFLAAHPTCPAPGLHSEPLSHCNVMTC

| Substance | HDAC:MIER ratio in the immunoprecipitate, percent of that in the MIER1α complex (MIER2) | HDAC:MIER ratio in the immunoprecipitate, percent of that in the MIER1α complex (MIER3 isoform 1) |
| --- | --- | --- |
| HDAC2 (from UniProt Q92769 1-488) (enzyme) | 20% |  |
| HDAC1 (from UniProt Q13547 1-482) (HEK293 cells) |  | 9% |
| HDAC2 (from UniProt Q92769 1-488) |  | 9% |
